Measurements as given in patent US20040043468A1.

Biological target: eIF4E
Assay: cell-based or functional assay

“dominant negative form of the eIF4E binding protein 4E-BP1 (from UniProt Q13541 1-118)” was tested, and the Photinus luciferase activity from the monocistronic PM construct in B104 cells, as a percentage of the activity with a control expression plasmid was 45 % of control and the Photinus luciferase activity from the β-globin 5′ UTR monocistronic construct in B104 cells, as a percentage of the activity with a control expression plasmid was 43 % of control.
